# What was measured:
# [1] = biological target: HT-WGP (hexahistidine-tagged WGP fragment of N-WASP, amino acids 1-396) (bovine, UniProt Q95107 1-396); experiment: pull-down
# [2] = biological target: HT-WG (hexahistidine-tagged WG fragment of N-WASP, amino acids 1-277) (bovine, UniProt Q95107 1-277); experiment: pull-down
# Chain of HT-WG (hexahistidine-tagged WG fragment of N-WASP, amino acids 1-277) (Q95107 1-277): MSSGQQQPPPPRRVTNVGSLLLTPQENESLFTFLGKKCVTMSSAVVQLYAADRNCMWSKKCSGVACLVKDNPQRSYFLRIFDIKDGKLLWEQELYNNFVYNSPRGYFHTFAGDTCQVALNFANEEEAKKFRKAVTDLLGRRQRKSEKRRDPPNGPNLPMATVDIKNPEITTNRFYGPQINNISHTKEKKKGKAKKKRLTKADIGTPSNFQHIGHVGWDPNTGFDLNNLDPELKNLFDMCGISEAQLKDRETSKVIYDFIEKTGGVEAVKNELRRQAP
# Chain of HT-WGP (hexahistidine-tagged WGP fragment of N-WASP, amino acids 1-396) (Q95107 1-396): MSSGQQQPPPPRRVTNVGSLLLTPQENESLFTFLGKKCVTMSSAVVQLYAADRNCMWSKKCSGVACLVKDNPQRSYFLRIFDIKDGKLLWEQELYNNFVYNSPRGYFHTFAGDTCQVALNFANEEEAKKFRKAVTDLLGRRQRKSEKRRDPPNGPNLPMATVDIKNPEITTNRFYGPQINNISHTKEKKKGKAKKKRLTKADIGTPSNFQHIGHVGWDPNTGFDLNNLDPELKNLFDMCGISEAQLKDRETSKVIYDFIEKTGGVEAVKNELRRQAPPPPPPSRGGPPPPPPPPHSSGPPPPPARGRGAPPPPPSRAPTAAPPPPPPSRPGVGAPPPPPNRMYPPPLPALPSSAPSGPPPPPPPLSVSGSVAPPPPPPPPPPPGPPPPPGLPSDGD
binder,measurement,setting,value
"GST-VCA (GST fusion of the COOH-terminal VCA segment of bovine N-WASP, amino acids 392-505) (domain or fragment, UniProt Q95107 392-505, looked up) PSDGDHQVPTPAGSKAALLDQIREGAQLKKVEQNSRPVSCSGRDALLDQIRQGIQLKSVTDAPESTPPAPAPTSGIVGALMEVMQKRSKAIHSSDEDEDEDDDEDFEDDDEWED",binding result,[1],binds
same,binding result,[2],binds

# Reference: PMC2150699 (The Journal of Cell Biology, 2000)
